According to patent publication US20250186594A1 (BRIGHT PEAK THERAPEUTICS, published 2025):

T1: IL-18Rα/β heterodimer (Fc fused human IL-18Rα mixed with Fc fused human IL-18Rβ) (human, UniProt Q13478 19-329; O95256 20-356, limits assumed)
T1 construct: Alpha and beta Fc fusions were mixed and pre-incubated for 30 min before capture on anti-human IgG; also called alpha/beta heterodimer IL-18 receptor; heterodimeric human IL-18 receptor alpha (CD218a) and IL-18R accessory protein (IL-18RAP/CDw218b); not shown: Fc
T1 sequence (looked up) 1: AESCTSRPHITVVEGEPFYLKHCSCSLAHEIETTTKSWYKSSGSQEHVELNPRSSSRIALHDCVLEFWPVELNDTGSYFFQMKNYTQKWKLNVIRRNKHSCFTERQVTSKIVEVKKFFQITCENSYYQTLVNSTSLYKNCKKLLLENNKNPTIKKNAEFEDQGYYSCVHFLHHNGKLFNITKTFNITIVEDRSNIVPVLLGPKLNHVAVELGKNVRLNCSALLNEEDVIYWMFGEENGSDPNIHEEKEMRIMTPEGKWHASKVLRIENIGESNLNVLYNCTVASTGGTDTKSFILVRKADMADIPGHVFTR
T1 sequence (looked up) 2: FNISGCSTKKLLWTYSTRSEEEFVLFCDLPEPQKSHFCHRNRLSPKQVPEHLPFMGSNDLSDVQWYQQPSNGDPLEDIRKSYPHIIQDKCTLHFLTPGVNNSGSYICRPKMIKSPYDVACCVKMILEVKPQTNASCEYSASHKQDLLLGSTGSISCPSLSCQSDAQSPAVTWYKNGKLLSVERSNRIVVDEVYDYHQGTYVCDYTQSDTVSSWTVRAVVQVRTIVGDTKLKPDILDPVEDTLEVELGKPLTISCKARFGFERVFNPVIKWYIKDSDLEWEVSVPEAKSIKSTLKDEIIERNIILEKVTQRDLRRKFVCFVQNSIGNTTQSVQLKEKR

T2: IL-18 receptor (IL-18R) on HEK-Blue IL18R reporter cells (UniProt Q13478 19-541; O95256 20-599, limits assumed)
T2 sequence (looked up) 1: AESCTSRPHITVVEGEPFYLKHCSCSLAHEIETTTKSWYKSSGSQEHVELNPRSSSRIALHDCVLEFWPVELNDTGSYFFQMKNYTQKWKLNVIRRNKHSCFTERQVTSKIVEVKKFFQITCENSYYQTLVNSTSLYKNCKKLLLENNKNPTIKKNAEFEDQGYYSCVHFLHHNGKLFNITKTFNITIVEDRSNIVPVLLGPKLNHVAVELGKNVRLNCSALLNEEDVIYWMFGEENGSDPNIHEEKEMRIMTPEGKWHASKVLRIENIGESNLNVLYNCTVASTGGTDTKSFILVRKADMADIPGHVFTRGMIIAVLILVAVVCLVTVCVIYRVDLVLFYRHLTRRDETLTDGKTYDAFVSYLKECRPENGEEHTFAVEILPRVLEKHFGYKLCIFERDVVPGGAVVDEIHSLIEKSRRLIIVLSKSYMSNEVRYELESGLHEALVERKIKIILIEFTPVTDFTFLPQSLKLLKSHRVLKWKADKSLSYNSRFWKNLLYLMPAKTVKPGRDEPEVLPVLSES
T2 sequence (looked up) 2: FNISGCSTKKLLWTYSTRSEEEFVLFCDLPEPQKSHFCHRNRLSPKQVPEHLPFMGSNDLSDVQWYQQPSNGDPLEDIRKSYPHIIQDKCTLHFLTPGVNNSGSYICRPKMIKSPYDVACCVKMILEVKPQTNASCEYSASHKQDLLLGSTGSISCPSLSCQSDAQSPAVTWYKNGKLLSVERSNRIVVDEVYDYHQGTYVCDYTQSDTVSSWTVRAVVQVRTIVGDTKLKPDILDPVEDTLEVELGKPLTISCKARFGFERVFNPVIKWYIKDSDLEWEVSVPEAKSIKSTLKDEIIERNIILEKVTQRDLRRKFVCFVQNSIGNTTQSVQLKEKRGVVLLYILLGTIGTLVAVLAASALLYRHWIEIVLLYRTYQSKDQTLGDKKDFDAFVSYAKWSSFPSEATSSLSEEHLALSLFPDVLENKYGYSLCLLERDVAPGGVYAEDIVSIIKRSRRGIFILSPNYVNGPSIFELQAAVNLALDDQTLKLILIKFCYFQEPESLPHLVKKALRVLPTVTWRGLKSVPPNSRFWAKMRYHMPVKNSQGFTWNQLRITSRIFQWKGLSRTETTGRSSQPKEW


molecular target: T1, IL-18Rα/β heterodimer (Fc fused human …); assay: SPR, Fc-IL-18Rα/β captured, heterogeneous ligand fit
Procedure: The interaction of the wild type and of modified IL-18 polypeptides with human IL-18 receptor subunits are measured with Surface Plasmon Resonance (SPR) technology. Anti-human IgG antibodies are bound by amine coupling onto a CM5 chip to capture 6 µg/mL of Fc fused human IL-18Rα, […] of Fc fused human IL-18Rβ, or […] of Fc fused human IL-18BP isoform a (IL-18BPa) for 30 min before capture. In other settings, […] of alpha and beta IL-18 receptors are mixed and pre-incubated for 30 min before capture of the alpha/beta heterodimer IL-18 receptor.
The kinetic binding of the IL-18 analytes are measured with a Biacore 8K instrument in two fold serial dilutions starting at […] down to 0.98 nM. Regeneration of the surface back to amine coupled anti IgG antibody is done after every concentration of analyte. To measure the protein association to the receptors, the samples are injected with a flow rate of […] for 60 s, followed by 300 s buffer only to detect the dissociation. The used running buffer is 1×PBS with 0.05% Tween20. The relative response units (RU, Y-axis) are plotted against time (s, X-axis) and analyzed in a kinetic 1:1 binding model for the monomer receptor binding and for the binding to the IL-18BP. A kinetic heterogenous ligand fit model is applied for the alpha/beta heterodimer binding.

| Binder | Kd [nM] | koff [s⁻¹] | kon [M⁻¹ s⁻¹] |
| --- | --- | --- | --- |
| IL-18 variant SEQ ID NO: 62 with 30 kDa PEG (E6K, C38A, K53A, C127A, C68-30kPEG) (ligand, 30 kDa PEG on Cys 68 (C68-30kPEG), also called 62 + PEG) YFGKLKSKLSVIRNLNDQVLFIDQGNRPLFEDMTDSDARDNAPRTIFIISMYADSQPRGMAVTISVKCEKISTLSCENKIISFKEMNPPDNIKDTKSDIIFFQRSVPGHDNKMQFESSSYEGYFLAAEKERDLFKLILKKEDELGDRSIMFTVQNED | 14.9 | 0.000779 | 52300 |

molecular target: T2, IL-18 receptor (IL-18R) on HEK-Blue …; assay: cell-based or functional assay

| Binder | EC50, HEK-Blue IL18R reporter [nM] |
| --- | --- |
| IL-18 variant SEQ ID NO: 240 (E6R, V11I, C38A, K53A, T63A, C76A, C127A) (ligand) YFGKLRSKLSIIRNLNDQVLFIDQGNRPLFEDMTDSDARDNAPRTIFIISMYADSQPRGMAVAISVKCEKISTLSAENKIISFKEMNPPDNIKDTKSDIIFFQRSVPGHDNKMQFESSSYEGYFLAAEKERDLFKLILKKEDELGDRSIMFTVQNED | 0.04 |
| IL-18 variant SEQ ID NO: 205 (V11I, C38A, K53A, T63A, C76A, C127A) (ligand) YFGKLESKLSIIRNLNDQVLFIDQGNRPLFEDMTDSDARDNAPRTIFIISMYADSQPRGMAVAISVKCEKISTLSAENKIISFKEMNPPDNIKDTKSDIIFFQRSVPGHDNKMQFESSSYEGYFLAAEKERDLFKLILKKEDELGDRSIMFTVQNED | 0.17 |
| IL-18 variant SEQ ID NO: 206 (V11I, C38A, K53A, S55A, C76A, C127A) (ligand) YFGKLESKLSIIRNLNDQVLFIDQGNRPLFEDMTDSDARDNAPRTIFIISMYADAQPRGMAVTISVKCEKISTLSAENKIISFKEMNPPDNIKDTKSDIIFFQRSVPGHDNKMQFESSSYEGYFLAAEKERDLFKLILKKEDELGDRSIMFTVQNED | 3.63 |
| IL-18 variant SEQ ID NO: 212 (V11I, D35A, C38A, K53A, C76A, C127A) (ligand) YFGKLESKLSIIRNLNDQVLFIDQGNRPLFEDMTASDARDNAPRTIFIISMYADSQPRGMAVTISVKCEKISTLSAENKIISFKEMNPPDNIKDTKSDIIFFQRSVPGHDNKMQFESSSYEGYFLAAEKERDLFKLILKKEDELGDRSIMFTVQNED | 13.1 |
| IL-18 variant SEQ ID NO: 215 (V11I, E31A, D37A, C38A, K53A, C76A, C127A) (ligand) YFGKLESKLSIIRNLNDQVLFIDQGNRPLFADMTDSAARDNAPRTIFIISMYADSQPRGMAVTISVKCEKISTLSAENKIISFKEMNPPDNIKDTKSDIIFFQRSVPGHDNKMQFESSSYEGYFLAAEKERDLFKLILKKEDELGDRSIMFTVQNED | 11.9 |
| IL-18 variant SEQ ID NO: 217 (V11I, C38A, N41A, K53A, C76A, C127A) (ligand) YFGKLESKLSIIRNLNDQVLFIDQGNRPLFEDMTDSDARDAAPRTIFIISMYADSQPRGMAVTISVKCEKISTLSAENKIISFKEMNPPDNIKDTKSDIIFFQRSVPGHDNKMQFESSSYEGYFLAAEKERDLFKLILKKEDELGDRSIMFTVQNED | 11.7 |
| IL-18 variant SEQ ID NO: 218 (V11I, C38A, K53A, C76A, C127A, D132A) (ligand) YFGKLESKLSIIRNLNDQVLFIDQGNRPLFEDMTDSDARDNAPRTIFIISMYADSQPRGMAVTISVKCEKISTLSAENKIISFKEMNPPDNIKDTKSDIIFFQRSVPGHDNKMQFESSSYEGYFLAAEKERALFKLILKKEDELGDRSIMFTVQNED | 1.95 |

Next, values leading:

| EC50, HEK-Blue IL18R reporter [nM] | Binder |
| --- | --- |
| 0.02 | IL-18 variant SEQ ID NO: 243 (Y1M, E6K, V11I, C38A, K53A, T63A, C76A, C127A) (ligand) MFGKLKSKLSIIRNLNDQVLFIDQGNRPLFEDMTDSDARDNAPRTIFIISMYADSQPRGMAVAISVKCEKISTLSAENKIISFKEMNPPDNIKDTKSDIIFFQRSVPGHDNKMQFESSSYEGYFLAAEKERDLFKLILKKEDELGDRSIMFTVQNED |
| 0.98 | IL-18 variant SEQ ID NO: 204 (V11I, C38A, K53A, C76A, C127A) (ligand) YFGKLESKLSIIRNLNDQVLFIDQGNRPLFEDMTDSDARDNAPRTIFIISMYADSQPRGMAVTISVKCEKISTLSAENKIISFKEMNPPDNIKDTKSDIIFFQRSVPGHDNKMQFESSSYEGYFLAAEKERDLFKLILKKEDELGDRSIMFTVQNED |
| 1 | IL-18 variant SEQ ID NO: 208 (V11I, C38A, K53A, D54A, C76A, C127A) (ligand) YFGKLESKLSIIRNLNDQVLFIDQGNRPLFEDMTDSDARDNAPRTIFIISMYAASQPRGMAVTISVKCEKISTLSAENKIISFKEMNPPDNIKDTKSDIIFFQRSVPGHDNKMQFESSSYEGYFLAAEKERDLFKLILKKEDELGDRSIMFTVQNED |
| 7.28 | IL-18 variant SEQ ID NO: 209 (F2A, V11I, C38A, K53A, C76A, C127A) (ligand) YAGKLESKLSIIRNLNDQVLFIDQGNRPLFEDMTDSDARDNAPRTIFIISMYADSQPRGMAVTISVKCEKISTLSAENKIISFKEMNPPDNIKDTKSDIIFFQRSVPGHDNKMQFESSSYEGYFLAAEKERDLFKLILKKEDELGDRSIMFTVQNED |
| 6.6 | IL-18 variant SEQ ID NO: 210 (V11I, E31A, C38A, K53A, C76A, C127A) (ligand) YFGKLESKLSIIRNLNDQVLFIDQGNRPLFADMTDSDARDNAPRTIFIISMYADSQPRGMAVTISVKCEKISTLSAENKIISFKEMNPPDNIKDTKSDIIFFQRSVPGHDNKMQFESSSYEGYFLAAEKERDLFKLILKKEDELGDRSIMFTVQNED |
| 0.7 | IL-18 variant SEQ ID NO: 211 (V11I, T34A, C38A, K53A, C76A, C127A) (ligand) YFGKLESKLSIIRNLNDQVLFIDQGNRPLFEDMADSDARDNAPRTIFIISMYADSQPRGMAVTISVKCEKISTLSAENKIISFKEMNPPDNIKDTKSDIIFFQRSVPGHDNKMQFESSSYEGYFLAAEKERDLFKLILKKEDELGDRSIMFTVQNED |
| 0.25 | IL-18 variant SEQ ID NO: 213 (V11I, S36A, C38A, K53A, C76A, C127A) (ligand) YFGKLESKLSIIRNLNDQVLFIDQGNRPLFEDMTDADARDNAPRTIFIISMYADSQPRGMAVTISVKCEKISTLSAENKIISFKEMNPPDNIKDTKSDIIFFQRSVPGHDNKMQFESSSYEGYFLAAEKERDLFKLILKKEDELGDRSIMFTVQNED |
| 14.1 | IL-18 variant SEQ ID NO: 214 (V11I, D37A, C38A, K53A, C76A, C127A) (ligand) YFGKLESKLSIIRNLNDQVLFIDQGNRPLFEDMTDSAARDNAPRTIFIISMYADSQPRGMAVTISVKCEKISTLSAENKIISFKEMNPPDNIKDTKSDIIFFQRSVPGHDNKMQFESSSYEGYFLAAEKERDLFKLILKKEDELGDRSIMFTVQNED |
| 0.52 | IL-18 variant SEQ ID NO: 216 (V11I, C38A, D40A, K53A, C76A, C127A) (ligand) YFGKLESKLSIIRNLNDQVLFIDQGNRPLFEDMTDSDARANAPRTIFIISMYADSQPRGMAVTISVKCEKISTLSAENKIISFKEMNPPDNIKDTKSDIIFFQRSVPGHDNKMQFESSSYEGYFLAAEKERDLFKLILKKEDELGDRSIMFTVQNED |
